In publication PMC5441855 one finds Km and kcat data, which are given here for one substance.

The test system of the series is CC(C)=CCC/C(C)=C/CC/C(C)=C/CC/C(C)=C/COP(=O)(O)OP(=O)(O)O. Put plainly: purified protein. The settings on record: 50 mM HEPES pH 7.0, 100 mM KCl, 0.1 mM MgCl2, 10% glycerol, 30 °C, 1-25 µM GGPP, 30 s, product (-)-kolavenyl diphosphate.

Take SdKPS (Tr-SdKPS) (Salvia divinorum): the Km came to 1.9 ± 0.66 µM and the kcat is 0.88 ± 0.11 s⁻¹.

What is called Km is the concentration of substrate that gives half-maximal velocity. A word on the kcat: it is the maximal rate divided by the concentration of active sites.
